Laboratory results from US20080181886A1 (Genentech, published 2008).

Columns and labels:
[1] = biological target: T1, TRX-APRIL (mouse, UniProt Q9D777 104-241); experiment: SPR competition: ligand in solution against immobilized BCMA-Fc
T1 construct: Named only as TRX-APRIL
T1 sequence (looked up): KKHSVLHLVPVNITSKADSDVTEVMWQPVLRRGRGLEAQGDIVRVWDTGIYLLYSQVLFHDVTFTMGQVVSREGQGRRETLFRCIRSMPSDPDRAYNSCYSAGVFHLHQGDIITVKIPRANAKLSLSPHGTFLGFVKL
Description: (§2) Surface plasmon resonance (SPR) measurements on a BIAcore 3000 instrument (Pharmacia Biosensor) were used to measure binding affinities of receptors to immobilized APRIL and BAFF by competition binding. […] In all experiments flow cell 1 was ethanolamine-blocked and used as the reference cell. Washing with 10 mM HCl regenerated flow cells between sample injections. […] The concentration of ligand that provided a slope of about 1 for the initial on-rate of the observed sensorgrams was selected as the fixed concentration to be used in the competition experiments. In all experiments where BAFE was the ligand, the buffer used was composed of 10 mM HEPES, pH 7.2, 150 mM NaCl, and 0.005% Tween-20. In all experiments where TRX-APRIL was the ligand selected, the buffer was composed of 20 mM Tris-HCl, pH 8.0, 200 mM NaCl, and 0.005% Tween-20. […] A linear fit of the initial on-rate of the observed sensorgrams was used to calculate the binding rate (V). The IC₅₀ values were calculated using a four-parameter curve fit (y=((m1−m4)/(1+(m0/m3)̂m2))+m4) of the initial binding rates for the receptor/control (Vᵢ/Vₒ) as a function of receptor concentration.

[2] = biological target: T2, human BAFF (human, UniProt Q9Y275 82-285, limits assumed); experiment: as above
T2 sequence (Q9Y275 82-285 limits assumed): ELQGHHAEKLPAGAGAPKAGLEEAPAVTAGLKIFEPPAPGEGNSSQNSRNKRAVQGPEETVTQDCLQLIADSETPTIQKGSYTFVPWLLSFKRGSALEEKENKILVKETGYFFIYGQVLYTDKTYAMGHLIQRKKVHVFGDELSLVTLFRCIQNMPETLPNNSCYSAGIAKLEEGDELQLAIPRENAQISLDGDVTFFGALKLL
Description: as §2

[3] = biological target: T3, Murine APRIL (mouse, UniProt Q9D777 105-241, limits assumed); experiment: shotgun scan, phage display
T3 sequence (looked up): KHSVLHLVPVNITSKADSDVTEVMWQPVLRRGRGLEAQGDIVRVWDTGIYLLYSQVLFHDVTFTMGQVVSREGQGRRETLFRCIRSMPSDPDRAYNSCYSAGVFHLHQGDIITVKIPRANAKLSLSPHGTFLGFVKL
Source text: (§1) Phage from each of the libraries described above were subjected to rounds of binding selection against APRIL, BAFF, or anti-tag antibody (3C8:2F4 Genentech, Inc.) immobilized on 96-well Nunc Maxisorp immunoplates (Sidhu, 2001). BSA-coated wells were used to determine non-specific background binding. Phage eluted from each target were propagated in E. coli XL1-Blue in the presence of M13K07 helper phage; amplified phage were used for selection against the same target in the […] round. […] Enrichment was calculated from the ratio of the phage titer eluted from the target-coated wells to the phage titer eluted from the BSA-coated wells. Individual clones from each library and selection target were then grown in a 96-well format in 400 ul of 2YT medium supplemented with carbenicillin and KO7 helper phage. […] Sequences of acceptable quality were translated and aligned. For APRIL-binding, 71, 40, and 54 sequences were analyzed from libraries one, two and three, respectively. For BAFF-binding, 70, 50, and 53 sequences were analyzed for libraries one, two and three, respectively. For the display selection, a minimum of 47 sequences were analyzed for each library. […] F values describe the effect of mutation on target binding, while accounting for differences in display efficiencies, with values >1 representing deleterious mutations and those <1 representing favorable mutations.

[4] = biological target: T2, human BAFF; experiment: shotgun scan, phage display
Source text: as §1

[5] = biological target: T3, Murine APRIL; experiment: NNS library, phage display;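 also: ligand versus display occurrence-to-degeneracy ratio and higher means enriched by binding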
[6] = biological target: T2, human BAFF; experiment: NNS library, phage display;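 also: ligand versus display occurrence-to-degeneracy ratio and higher means enriched by binding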

B1: TACI_d2 (second cysteine-rich domain, CRD2, residues 68-109 of human TACI) (receptor)
chain: GSPWSLSCRKEQGKFYDHLLRDCISCASICGQHPKQCAYFCENKLR
notes: E. coli, cleaved from TRX-His fusion; residue numbers are those of native human TACI (293 aa); also called TACI CRD2
- IC50 [1]: 6 nM
- IC50 [2]: 2 nM

Binder: SLSCRKEQGKAYDHLLRDCISCASICGQHPKQCAYFCENKLR (receptor, phage library variant, format as m9) [TACI_d2 F78A]
- F (APRIL) [3]: 29
- F (BAFF) [4]: 1.1
- F' APRIL [5]: 0
- F' BAFF [6]: 0

Binder: SLSCRKEQGKVYDHLLRDCISCASICGQHPKQCAYFCENKLR (receptor, phage library variant, format as m9) [TACI_d2 F78V]
- F (APRIL) [3]: 5.2
- F (BAFF) [4]: 0.8
- F' APRIL [5]: 1
- F' BAFF [6]: 1

Binder: SLSCRKEQGKFYDHLLRDCISCASTCGQHPKQCAYFCENKLR (receptor, phage library variant, format as m9) [TACI_d2 I92T]
- F (APRIL) [3]: 6
- F (BAFF) [4]: 0.9
- F' APRIL [5]: 3
- F' BAFF [6]: 7

Binder: SLSCRKEQGKFYDHLLRDCISCASVCGQHPKQCAYFCENKLR (receptor, phage library variant, format as m9) [TACI_d2 I92V]
- F (APRIL) [3]: 3.3
- F (BAFF) [4]: 0.5
- F' APRIL [5]: 6
- F' BAFF [6]: 9

Binder: SLSCRKEQGKFYDHLLRDCISCASICGQHPKQCADFCENKLR (receptor, phage library variant, format as m9) [TACI_d2 Y102D]
- F (APRIL) [3]: 0.8
- F (BAFF) [4]: 0.6
